Earlier results in paper PMC5298935.

Legend:
[1] = target: IRAK1 p173 peptide UD (Homo sapiens) (UniProt P51617); experiment: NMR
[2] = target: IRAK1 p131 peptide UD (Homo sapiens) (UniProt P51617); experiment: NMR
[3] = target: IRAK1 p144 peptide UD (Homo sapiens) (UniProt P51617); experiment: NMR
[4] = target: IRAK1 p173 peptide 157-180 (Homo sapiens) (UniProt P51617); experiment: NMR titration
[5] = target: IRAK1 p144 peptide 140-149 (Homo sapiens) (UniProt P51617); experiment: NMR titration
IRAK1 p144 peptide 140-149 (Homo sapiens), sequence (P51617 whole entry, looked up, tested part not stated): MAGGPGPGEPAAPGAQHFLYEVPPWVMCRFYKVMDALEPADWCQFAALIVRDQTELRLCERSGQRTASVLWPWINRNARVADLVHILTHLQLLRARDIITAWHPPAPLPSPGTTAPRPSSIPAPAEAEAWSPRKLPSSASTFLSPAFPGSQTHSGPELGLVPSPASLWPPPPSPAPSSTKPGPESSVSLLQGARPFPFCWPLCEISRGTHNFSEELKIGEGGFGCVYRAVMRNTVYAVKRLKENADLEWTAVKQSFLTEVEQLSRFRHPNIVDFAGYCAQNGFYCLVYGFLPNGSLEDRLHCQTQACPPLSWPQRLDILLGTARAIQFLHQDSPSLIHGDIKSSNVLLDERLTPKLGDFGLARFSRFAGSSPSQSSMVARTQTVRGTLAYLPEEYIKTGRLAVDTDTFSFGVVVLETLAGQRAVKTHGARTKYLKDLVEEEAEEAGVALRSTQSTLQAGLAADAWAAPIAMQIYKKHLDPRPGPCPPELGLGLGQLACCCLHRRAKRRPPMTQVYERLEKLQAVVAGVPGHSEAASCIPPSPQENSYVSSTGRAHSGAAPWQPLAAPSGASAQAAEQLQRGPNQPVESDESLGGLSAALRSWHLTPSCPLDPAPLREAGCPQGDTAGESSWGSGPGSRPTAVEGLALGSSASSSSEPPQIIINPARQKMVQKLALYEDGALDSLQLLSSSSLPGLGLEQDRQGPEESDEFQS

Pin1 WW, sequence (Q13526 2-42): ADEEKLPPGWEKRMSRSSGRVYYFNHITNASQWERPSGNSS
Pin1 WW domain 1-50, sequence (Q13526 1-50): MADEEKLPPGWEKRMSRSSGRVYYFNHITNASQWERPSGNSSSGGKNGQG
IRAK1 p173 peptide 157-180 (Homo sapiens), sequence (P51617 157-180): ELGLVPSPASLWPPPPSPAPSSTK
IRAK1 p144 peptide UD (Homo sapiens), sequence (P51617 whole entry, looked up, tested part not stated): as the sequence (P51617 whole entry, looked up, tested part not stated) above
IRAK1 p173 peptide UD (Homo sapiens), sequence (P51617 whole entry, looked up, tested part not stated): as above
IRAK1 p131 peptide UD (Homo sapiens), sequence (P51617 whole entry, looked up, tested part not stated): as above

| Substance | Kd [1] [µM] | Kd [2] [µM] | Kd [3] [µM] | Kd [4] [µM] | Kd [5] [µM] |
| --- | --- | --- | --- | --- | --- |
| Pin1 WW (from UniProt Q13526) | 260 | 220 | 120 |  |  |
| Pin1 WW domain 1-50 (from UniProt Q13526) |  |  |  | 260 | 120 |
